Results published in paper PMC9696088, “Alicyclobacillus mali FL18 as a Novel Source of Glycosyl Hydrolases: Characterization of a New Thermophilic β-Xylosidase Tolerant to Monosaccharides” (International Journal of Molecular Sciences, 2022).

B1: AmβXyl (Alicyclobacillus mali (ex Roth et al. 2021)) (protein)
chain: MYLDPAQSVDARVDALLADMTLEEKVAQLTSIWAFEILDDLRFSAEKAAAVLGQGIGQVTRIGGATNLDPPDVARLANQIQRYLRDHTRLGIPALIHEESCSGYMAKGATCFPQTIGIASTWDVDLAQRIGAIIRDQMRAVGARQALAPLLDVARDPRWGRVEETFGEDPYLVAQMGIAYVRGLQGEDLSQGVMATGKHFVGYGASEGGMNWAPAHIPERELREVYLFPFEAAVREAGLGAIMPGYHELDGVPCHDNPGLLRETLRGRWGFQGLVVSDYFAVNQLFEYHQVARDKAEAAALAVRAGVDVELPTRDVYGKPLIEAVARGLVSVAEIDELVRRVLTWKFRLGLFDHPFVDEGAAIAVFDNAEQRKVAREAAEKSLVLLKNDGLLPLAPRGTIAVIGPNAHTTRNLVGDYAYPCHIESLLEQSEDNVFQTPLPSGVKHVDEFIPMRTILEAIGHRVGSEAQVVYAKGCDVLEGEDADLDEAVALAAQSDVAVVVVGDRAGLTDACTTGESRDRATLSLIGRQEELVRRVLATGTKTVVVLVSGRPLAIPDIAERANAVLEAWLPGEEGAEAVAAVLFGDVNPSGKLPVTIPRSVGQVPIYYGHKPSGGRSHWKGAYVDESNLPLYPFGHGLSYTAFEYRDLTLSASELGVHGEIEVACVIENVGARAGEEVVQLYARDVAADVTRPVKVLCGFARVPLAPGEKARVRFRVSAHQFGFYNREMRYVVEPGEIEIMVGASSEDIRLRGMVRIHGAMTEIEHEKVYQSAVNVERM
notes: synthetic codon-optimised gene in pET-30a(+) NcoI/HindIII, N-terminal His-tag; E. coli BL21 (DE3) RIL; ~89 kDa on SDS-PAGE, dimer ~177 kDa

What was measured:
[1] = target: AmβXyl, β-xylosidase (GH3) from Alicyclobacillus mali FL18 (Alicyclobacillus mali FL18); assay: SEC-MALS; size-exclusion chromatography (S200 16/60) with triple-angle light scattering and QELS; 500 μg loaded; 100 mM NaCl, 25 mM sodium phosphate pH 7.5, 1 mM DTT; 0.5 mL/min
[2] = substrate: O=[N+]([O-])c1ccc(O[C@@H]2O[C@@H](CO)[C@H](O)[C@H]2O)cc1; assay: pNP release, A405 nm, Michaelis-Menten fit (GraphPad Prism); format: biochemical, Alicyclobacillus mali (ex Roth et al. 2021); details: 50 mM sodium citrate pH 5.6, 1 mM DTT, 80 °C, substrate 0.1-8.0 mM
Source text: (§1) pNP release, A405 nm, Michaelis-Menten fit (GraphPad Prism) on AmβXyl

[3] = substrate: O=[N+]([O-])c1ccc(O[C@@H]2OC[C@@H](O)[C@H](O)[C@H]2O)cc1; assay: as above; format: biochemical, Alicyclobacillus mali (ex Roth et al. 2021); details: 50 mM sodium citrate pH 5.6, 1 mM DTT, 80 °C, substrate 0.1-8.0 mM
Source text: as §1

stoichiometry N [1]	Molecule	Km [2] [mM]	kcat [2] [s⁻¹]	kcat/Km [2] [M⁻¹ s⁻¹]	Km [3] [mM]	kcat [3] [s⁻¹]	kcat/Km [3] [M⁻¹ s⁻¹]
2	AmβXyl, β-xylosidase (GH3) from Alicyclobacillus mali FL18 (enzyme)						
	B1	10.56	2400	227000	0.52	1610	3.09e+06
